Target: Myeloperoxidase (Homo sapiens, UniProt P05164)
Test: SPR

Myeloperoxidase, sequence (P05164 165-273): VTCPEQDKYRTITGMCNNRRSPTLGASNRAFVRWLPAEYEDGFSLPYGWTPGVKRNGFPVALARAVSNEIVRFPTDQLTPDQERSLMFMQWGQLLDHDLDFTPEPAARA

Kd: 183 µM
B1: VPNHFNAP peptide (peptide)
chain: VPNHFNAP

Reference: publication PMC12583094 (2025)
